In data set [1] the target is T1, isolated enoyl reductase (ER) domain of squalestatin tetraketide synthase (SQTKS) (Phoma sp. C2932, UniProt Q86ZD9).
T1 construct: gene pks1; isolated ER domain only, his6-tagged, from synthetic codon-optimised phpks1, expressed in E. coli; dimer; exact borders in ESI (model begins at G1886)
T1 sequence (Q86ZD9 1887-2207 limits assumed): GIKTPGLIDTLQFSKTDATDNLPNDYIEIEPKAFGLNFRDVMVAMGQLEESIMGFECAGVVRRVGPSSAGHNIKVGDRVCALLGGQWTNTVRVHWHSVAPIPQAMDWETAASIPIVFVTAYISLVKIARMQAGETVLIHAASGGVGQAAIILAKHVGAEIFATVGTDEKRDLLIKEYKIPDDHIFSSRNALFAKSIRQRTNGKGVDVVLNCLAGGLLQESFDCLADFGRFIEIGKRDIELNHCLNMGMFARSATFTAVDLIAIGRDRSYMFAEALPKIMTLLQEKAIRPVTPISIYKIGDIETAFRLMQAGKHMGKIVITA
As to the kind of experiment: inhibition of turnover of tigloyl pantetheine 5P. Format: biochemical. The conditions noted are these: substrate 5P, NADPH; inhibitor, not reduced.

Substrate in data set [2]: C/C=C(\CC)C(=O)SCCNC(=O)CCNC(=O)[C@H](O)C(C)(C)CO
As to the kind of experiment: purified protein, by the assay type. The conditions noted are these: 30.0 °C. On the set-up: continuous spectrophotometric assay, NADPH consumption at 340 nm, initial rates fitted to Michaelis-Menten.

Substrate in data set [3]: C/C=C(\C)C(=O)SCCNC(=O)CCNC(=O)[C@H](O)C(C)(C)CO
Kind of data set: purified protein, by the assay type. The conditions noted are these: 30.0 °C. On the set-up: continuous spectrophotometric assay, NADPH consumption at 340 nm, initial rates fitted to Michaelis-Menten.

Substrate in data set [4]: CC[C@H](C)/C=C(\C)C(=O)SCCNC(=O)CCNC(=O)[C@H](O)C(C)(C)CO
Kind of data set: purified protein, by the assay type. On the set-up: continuous spectrophotometric assay, NADPH consumption at 340 nm, initial rates fitted to Michaelis-Menten. The conditions noted are these: 30.0 °C.

Substrate in data set [5]: CCC/C=C(\C)C(=O)SCCNC(=O)CCNC(=O)[C@H](O)C(C)(C)CO
As to the kind of experiment: purified protein, by the assay type. The conditions noted are these: 30.0 °C. On the set-up: continuous spectrophotometric assay, NADPH consumption at 340 nm, initial rates fitted to Michaelis-Menten.

Substrate in data set [6]: CCC(C)/C=C/C(=O)SCCNC(=O)CCNC(=O)[C@H](O)C(C)(C)CO
As to the kind of experiment: purified protein, by the assay type. Details: continuous spectrophotometric assay, NADPH consumption at 340 nm, initial rates fitted to Michaelis-Menten. The conditions noted are these: 30.0 °C.

Substrate in data set [7]: C/C=C(/C)C(=O)SCCNC(=O)CCNC(=O)[C@H](O)C(C)(C)CO
Kind of data set: purified protein, by the assay type. Details: continuous spectrophotometric assay, NADPH consumption at 340 nm, initial rates fitted to Michaelis-Menten. The conditions noted are these: 30.0 °C.

Substrate in data set [8]: CCC/C=C(\CC)C(=O)SCCNC(=O)CCNC(=O)[C@H](O)C(C)(C)CO
Kind of data set: purified protein, by the assay type. On the set-up: continuous spectrophotometric assay, NADPH consumption at 340 nm, initial rates fitted to Michaelis-Menten. The conditions noted are these: 30.0 °C.

Substrate in data set [9]: CCCCC/C=C/C(=O)SCCNC(=O)CCNC(=O)[C@H](O)C(C)(C)CO
Kind of data set: purified protein, by the assay type. Details: continuous spectrophotometric assay, NADPH consumption at 340 nm, initial rates fitted to Michaelis-Menten. The conditions noted are these: 30.0 °C.

Substrate in data set [10]: CCCC/C=C/C(=O)SCCNC(=O)CCNC(=O)[C@H](O)C(C)(C)CO
As to the kind of experiment: purified protein, by the assay type. The conditions noted are these: 30.0 °C. On the set-up: continuous spectrophotometric assay, NADPH consumption at 340 nm, initial rates fitted to Michaelis-Menten.

Substrate in data set [11]: CCC/C=C/C(=O)SCCNC(=O)CCNC(=O)[C@H](O)C(C)(C)CO
As to the kind of experiment: purified protein, by the assay type. Details: continuous spectrophotometric assay, NADPH consumption at 340 nm, initial rates fitted to Michaelis-Menten. The conditions noted are these: 30.0 °C.

Substrate in data set [12]: CC(C)CCC/C=C/C(=O)SCCNC(=O)CCNC(=O)[C@H](O)C(C)(C)CO
As to the kind of experiment: purified protein, by the assay type. Details: continuous spectrophotometric assay, NADPH consumption at 340 nm, initial rates fitted to Michaelis-Menten. The conditions noted are these: 30.0 °C.

Substrate in data set [13]: CC(C)CC/C=C/C(=O)SCCNC(=O)CCNC(=O)[C@H](O)C(C)(C)CO
Kind of data set: purified protein, by the assay type. The conditions noted are these: 30.0 °C. On the set-up: continuous spectrophotometric assay, NADPH consumption at 340 nm, initial rates fitted to Michaelis-Menten.

Substrate in data set [14]: CCC(C)CC(C)/C=C/C(=O)SCCNC(=O)CCNC(=O)[C@H](O)C(C)(C)CO
Kind of data set: purified protein, by the assay type. On the set-up: continuous spectrophotometric assay, NADPH consumption at 340 nm, initial rates fitted to Michaelis-Menten. The conditions noted are these: 30.0 °C.

With `CC[C@H](C)C[C@H](C)/C=C/C(=O)SCCNC(=O)CCNC(=O)[C@H](O)C(C)(C)CO` [1P, squalestatin tetraketide pantetheine], the “inhibition of turnover of tigloyl pantetheine 5P” value in data set [1] is on record as “it does act as an inhibitor of the ER in vitro”.

B1: isolated enoyl reductase (ER) domain of squalestatin tetraketide synthase (SQTKS) (Phoma sp. C2932) (protein)
chain: T1 sequence (Q86ZD9 1887-2207 limits assumed)
notes: isolated ER domain only, his6-tagged, from synthetic codon-optimised phpks1, expressed in E. coli; dimer; exact borders in ESI (model begins at G1886)
As usually defined, the Km is the concentration of substrate that gives half-maximal velocity. Usually kcat stands for the number of substrate molecules converted per active site and unit of time at saturation. A word on the kcat/Km: it is the second-order rate constant that governs catalysis at low substrate concentration. For B1, the Km in data set [2] was 0.16 µM; in [3], 0.69 µM; in data set [4], 0.41 µM; in data set [5], 0.54 µM; in data set [6], 0.18 µM; in data set [7], 0.44 µM. Also, the Km in data set [8] was found to be 0.19 µM; in data set [9] it was 0.6 µM; in data set [10], 0.18 µM; in data set [11], 0.23 µM; in [12] it was 4.70 µM; in [13], 0.52 µM. Also, the Km in data set [14] was 0.18 µM. Besides, the turnover number (kcat) in data set [2] was 2.58 s⁻¹; in data set [3] it was 8.9 s⁻¹; in [4] it was 48.8 s⁻¹; in [5], 415 s⁻¹; in [6], 5.9 s⁻¹; in [7] it was 11.4 s⁻¹. Further, the catalytic constant (kcat) in data set [8] came out at 4.71 s⁻¹; in data set [9] it was 9 s⁻¹; in data set [10], 7.11 s⁻¹; in [11], 25.9 s⁻¹; in [12] it was 0.85 s⁻¹; in data set [13], 5.6 s⁻¹. In data set [14], the kcat stood at 2 s⁻¹. Moreover, the kcat/Km in data set [2] came to 1.61e+07 M⁻¹ s⁻¹; in [3] it was 1.29e+07 M⁻¹ s⁻¹; in [4] it was 1.19e+08 M⁻¹ s⁻¹; in data set [5], 7.68e+08 M⁻¹ s⁻¹; in [6] it was 3.28e+07 M⁻¹ s⁻¹; in data set [7] it was 2.59e+07 M⁻¹ s⁻¹. The kcat/Km in [8] is 2.48e+07 M⁻¹ s⁻¹; in [9], 1.5e+07 M⁻¹ s⁻¹; in data set [10], 3.95e+07 M⁻¹ s⁻¹; in [11], 1.13e+08 M⁻¹ s⁻¹; in data set [12], 200000 M⁻¹ s⁻¹; in data set [13], 1.08e+07 M⁻¹ s⁻¹. Also, the kcat/Km in data set [14] was determined as 1.11e+07 M⁻¹ s⁻¹.

The values above are taken from PMC5369529, “Substrate selectivity of an isolated enoyl reductase catalytic domain from an iterative highly reducing fungal polyketide synthase reveals key components of programming” (Chemical Science, 2016).
